Data from publication PMC6801647, “Crystal Structure of Kluyveromyces lactis Glucokinase (KlGlk1)” (International Journal of Molecular Sciences, 2019).

Legend:
[1] = target: Kluyveromyces lactis glucokinase (KlGlk1) (Kluyveromyces lactis) (UniProt Q6CUZ3); assay: SEC-MALS; size-exclusion chromatography (Superdex 200 Increase 10/300 GL) coupled to right-angle/low-angle light scattering (RALS/LALS) and refractive index, OMNISEC REVEAL; 50 mM Tris pH 7.8, 200 mM NaCl, 5 mM beta-ME
[2] = substrate: Nc1ncnc2c1ncn2[C@@H]1O[C@H](COP(=O)(O)OP(=O)(O)OP(=O)(O)O)[C@@H](O)[C@H]1O; assay: G6PD-coupled assay, fit over ATP range preceding substrate inhibition; assay type: biochemical, Kluyveromyces lactis; conditions: 0.5 mM glucose, 5 mM MgCl2, 50 mM KCl, 250 mM sucrose, 20 mM Tris-HCl pH 7.4, 37 °C, Hill coefficient 1.97 at low ATP, substrate inhibition from 0.25 mM ATP

stoichiometry N [1] | Molecule | Km [2] [µM] | kcat [2] [s⁻¹]
2 | Kluyveromyces lactis glucokinase (KlGlk1) (from UniProt Q6CUZ3 49-481) (enzyme) | – | –
– | KlGlk1 (Kluyveromyces lactis NRRL Y-1140) (protein, codon-optimized synthetic gene in pET24d, E. coli BL21 (DE3); N-terminal His-tag removed with TEV protease; dimer in solution (100 kDa apparent); crystal model residues 2-481) SDPKLTKAVDSICDQFIVTKSKISQLTEYFIDCMEKGLEPCESDISQNKGLPMIPTFVTDKPSGQEHGVTMLAADLGGTNFRVCSVELLGNHEFKIEQEKSKIPTFFFQDDHHVTSKDLFQHMALITHQFLTKHHKDVIQDYKWKMGFTFSYPVDQTSLSSGKLIRWTKGFKIGDTVGQDVVQLFQQELNDIGLSNVHVVALTNDTTGTLLARCYASSDAARAINEPVIGCIFGTGTNGCYMEKLENIHKLDPASREELLSQGKTHMCINTEWGSFDNELNHLPTTSYDIKIDQQFSTNPGFHLFEKRVSGLYLGEILRNILLDLEKQELFDLKESVLKNNPFILTTETLSHIEIDTVENDLQDTRDALLKAADLETTFEERVLIQKLVRAISRRAAFLAAVPIAAILIKTNALNQSYHCQVEVGCDGSVVEHYPGFRSMMRHALALSPIGPEGERDVHLRISKDGSGVGAALCALHANY | 150 | 400
